In patent US20250084152A1 (DUKE UNIVERSITY, published 2025):

Assays:
Assay in all cases: ELISA on LAH peptide
[1] = target: H3/X31 LAH peptide (LAH-Fc fusion protein) (Influenza A virus H3N2 A/Aichi/2/1968, UniProt P03436 421-475)
[2] = target: H5/VN04 LAH peptide (LAH-Fc fusion protein) (Influenza A virus H5 A/Vietnam/1203/2004, UniProt P87506 416-472)
[3] = target: B/MY04 LAH peptide (LAH-Fc fusion protein) (Influenza B virus B/Malaysia/2506/2004, UniProt P03461 425-480)

Measured: binding result

H3/X31 LAH peptide (LAH-Fc fusion protein), sequence (P03436 421-475 limits assumed): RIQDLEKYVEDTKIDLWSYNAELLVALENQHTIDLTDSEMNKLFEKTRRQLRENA
B/MY04 LAH peptide (LAH-Fc fusion protein), sequence (P03461 425-480 limits assumed): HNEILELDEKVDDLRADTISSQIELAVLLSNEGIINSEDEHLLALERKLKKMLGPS
H5/VN04 LAH peptide (LAH-Fc fusion protein), sequence (P87506 416-472 limits assumed): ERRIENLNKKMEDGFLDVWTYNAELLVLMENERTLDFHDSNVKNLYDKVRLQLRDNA

B1: S1V2-72 (antibody, V domains shown)
VH: QVQLVQSGAELKKPGASVKVSCKASGYTFTGNYIHWMRQVPGQGLEWMGWINPRTGDTHHAQKFQGRVDMTRDTSINTAYLELTRLESDDTALYYCARCVFATSQFDPWGQGTLVTVSS
VL: QSALTQPASVSGSPGQSITISCTGTNSDIGSHNLVSWYQQHPGKAPKVMIYDDSKRPSGVSNRFSGSKSGSTASLTISGLQSEDEADYYCCSYAGSSNWVFGGGTKLTLL
no binding: all assays above
